Entries after “also recorded” stand apart in the source; their conditions may differ.
Assays:
ERK = conditions: HK-2 cell, treatment alone; Wang et al., 2014; cited from earlier work
WT mice = experiment: Cerulein-induced pancreatitis in vivo; set-up: species or system mouse; conditions: single IP dose 2 hours after initiating cerulein pancreatitis; sacrificed at hour 7
Experimental: FIGS. 10A-10G, depict the results of experiments showing that pretreatment with renalase peptide (RP-220) ameliorates cerulein-induced pancreatitis in vivo. WT mice were treated with 6 hourly IP injections of cerulein (CER, 40 mcg/kg). IP renalase peptide, RP-220 (renalase, 1.3 mg/kg) was given 1 hour before first cerulein injection. (FIG. 10A) Pancreatic trypsin activation measured with fluorogenic substrate, normalized to total protein. (FIG. 10B) Edema measured as % wet weight. (FIG. 10C) Apoptosis evaluated by TUNEL positive cells. (FIG. 10D) Neutrophils (Ly-6B) and (FIG. 10E) macrophages (F4/80) were quantified. Pancreas H&E sections (FIG. 10G) were evaluated for edema, pyknotic nucei, and vacuoles to derive morphological score (FIG. 10F). *p<0.05 vs. WT-CER, +/−SEM, n=5.
A single dose of renalase was given intraperitoneally (100 μg peptide/25 g body weight) 2 hours after inducing cerulein-pancreatitis. Six hourly injections IP of 50 μg/kg and animals were sacrificed at hour 7. Histologic pancreatitis severity was evaluated by two blinded reviewers. […] N=4 mice in each group.
To determine whether the protective of renalase observed in isolated acini was relevant in vivo, WT mice were pretreated (1 hour) with a single dose of the renalase peptide (RP-220) intraperitoneally (100 μg peptide/25 g body weight) prior to inducing cerulein-pancreatitis (6 hourly injections IP of 50 μg/kg). […]

p38 MAPK = conditions: HK-2 cell, treatment alone; Wang et al., 2014; cited from earlier work
mice = conditions: literature (Lee et al., 2013; Wang et al., 2014); cited from earlier work
PMCA [1] = biological target: T1, PMCA (Mus musculus, UniProt Q6Q477); experiment: Ca2+ efflux through PMCA, time lapse confocal microscopy, mouse acinar cells; assay type: cell-based
T1 sequence (Q6Q477 1-1205): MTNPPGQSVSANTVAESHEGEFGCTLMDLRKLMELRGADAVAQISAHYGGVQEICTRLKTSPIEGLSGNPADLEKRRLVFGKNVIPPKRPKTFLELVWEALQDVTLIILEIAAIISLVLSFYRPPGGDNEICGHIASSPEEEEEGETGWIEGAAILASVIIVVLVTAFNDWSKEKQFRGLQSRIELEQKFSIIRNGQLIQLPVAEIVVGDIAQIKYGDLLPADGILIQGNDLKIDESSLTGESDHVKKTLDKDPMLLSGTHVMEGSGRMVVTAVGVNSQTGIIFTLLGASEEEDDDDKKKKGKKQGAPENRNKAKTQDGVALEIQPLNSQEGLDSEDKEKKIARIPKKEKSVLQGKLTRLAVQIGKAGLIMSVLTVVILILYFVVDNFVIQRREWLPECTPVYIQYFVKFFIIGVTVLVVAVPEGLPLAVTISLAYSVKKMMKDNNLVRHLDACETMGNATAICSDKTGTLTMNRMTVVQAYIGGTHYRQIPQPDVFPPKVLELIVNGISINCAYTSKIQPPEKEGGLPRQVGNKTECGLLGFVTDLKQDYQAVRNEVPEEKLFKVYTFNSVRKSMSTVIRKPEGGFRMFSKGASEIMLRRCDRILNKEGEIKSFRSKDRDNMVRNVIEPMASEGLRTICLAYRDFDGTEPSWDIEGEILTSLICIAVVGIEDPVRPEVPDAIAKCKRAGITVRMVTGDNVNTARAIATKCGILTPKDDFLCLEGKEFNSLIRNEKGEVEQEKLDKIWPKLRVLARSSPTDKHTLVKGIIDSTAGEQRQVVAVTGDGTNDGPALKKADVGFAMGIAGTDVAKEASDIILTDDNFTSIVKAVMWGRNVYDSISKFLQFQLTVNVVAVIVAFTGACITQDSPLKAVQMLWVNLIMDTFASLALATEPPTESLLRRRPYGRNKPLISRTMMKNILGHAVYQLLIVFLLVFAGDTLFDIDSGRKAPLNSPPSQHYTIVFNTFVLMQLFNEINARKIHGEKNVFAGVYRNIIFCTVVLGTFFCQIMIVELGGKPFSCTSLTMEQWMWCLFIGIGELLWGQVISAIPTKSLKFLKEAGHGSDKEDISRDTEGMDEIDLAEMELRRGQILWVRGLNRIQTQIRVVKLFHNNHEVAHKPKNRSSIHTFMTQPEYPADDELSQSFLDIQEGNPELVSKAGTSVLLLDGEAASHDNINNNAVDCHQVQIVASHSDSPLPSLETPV
Experimental: (§1) FIGS. 12A-12F, depict the results of experiments showing renalase increases Ca^2+ efflux through PCMA. Changes in whole cell cytosolic Ca^2+ were recorded with the Ca^2+ dye Fluo-4 (HK2 cells) or Fluo-5 (acinar cell) by time lapse confocal microscopy. FIGS. 12A, 12B, 12D, and 12E are representative plots of fluorescence over time in HK2 cells (FIGS. 12A and 12B) or mouse acinar cells (FIGS. 12D and 12E). Cells were pretreated with 30 μM cyclopiazonic acid and perfused with Ca^2+-free medium. Cells were briefly stimulated with 10 nM angiotensin IV (Ang in HK2 cells) or 100 nM cerulein (Cer in acinar cells) in the presence of 1.3 mM Ca^2+. […] For FIGS. 12C and 12F, the rate of Ca^2+ efflux was quantified from 30 cells/treatment group. *p<0.05 vs. no renalase. […]
(§2) PMCA selectively binds renalase (FIG. 6). […] Since the protective effects of renalase were first characterized in HK-2 cells (human kidney cell line) (Lee et al., 2013, J Am Soc Nephrol 24, 445-455; Wang et al., 2014, Journal of the American Society of Nephrology: JASN), its effects on Ca^2+ signals were evaluated in these cells and subsequently in mouse acinar cells (FIG. 12). […] Perfusion buffer was then switched back to Ca^2+-free medium in the presence or absence of renalase, and cytosolic Ca^2+ levels were monitored over time and the rates of Ca^2+ efflux were calculated (FIG. 12). […]

isolated mouse acini [2] = experiment: Injury of isolated mouse pancreatic acini (MTT, LDH release, H&E histology); assay type: cell-based; conditions: WT mouse acini, renalase 25 μg/mL, cerulein
Experimental: (§3) FIGS. 9A-9E, depict the results of experiments that show recombinant exogenous renalase reduce zymogen activation and injury in vitro in mice. (FIG. 9A) Isolated WT mouse acini were pretreated for 30 minutes with recombinant renalase (25 μg/mL; 0.1 μM) and then treated with either (FIG. 9A, 9D, 9E) physiologic (0.1 nM) and supraphysiologic (100 nM) cerulein or (FIG. 9B) physiologic (1 μM) or supraphysiologic (1000 μM) carbachol for 30 minutes. Trypsin activity (FIGS. 9A-9C), MTT accumulation (FIG. 9D), and LDH release (FIG. 9E) were assayed using a fluorogenic substrate. For FIG. 9C, isolated acini from renalase ^−/^− mice were treated pretreated with recombinant renalase (25 μg/mL) and then treated with cerulein (0.1 nM or 100 nM) for 30 minutes. *p<0.05 vs. supraphysiologic cerulein or carbachol, # p<0.05 vs. WT, n=3, +/−SEM.
FIGS. 13A-13C, depict the results of experiments showing caloxin blocks the protective effects of renalase. […]
Next, it was assessed whether pretreatment with recombinant human renalase reduces injury in pancreatitis. This was first assessed in isolated groups of murine acinar cells (acini) that were exposed to supraphysiologic concentrations of cerulein and carbachol (which induces early acinar cell pancreatitis responses) in isolated WT mouse acini and acini isolated from renalase deficient mice in vitro (FIG. 9). […]

PMCA [3] = biological target: PMCA (Homo sapiens, UniProt P23634); experiment: Ca2+ efflux through PMCA, time lapse confocal microscopy, HK2 cells; assay type: cell-based
Experimental: as §1, §2

isolated mouse acini [4] = experiment: Trypsin activity (zymogen activation) in isolated mouse pancreatic acini; assay type: cell-based
Experimental: as §3
FIGS. 13A-13C, depict the results of experiments showing caloxin blocks the protective effects of renalase. Isolated WT mouse acini were pretreated for 30 minutes with caloxin 1b (100 μM) and/or recombinant renalase (25 μg/mL) and then treated with supraphysiologic (100 nM) cerulein (CER) and assayed for trypsin activity (FIG. 13A) or MTT conversion (FIG. 13B). *p<0.05 vs. CER, # p<0.05 vs. CER+renalase. WT, n=3, +/−SEM.
Next, it was assessed whether pretreatment with recombinant human renalase reduces injury in pancreatitis. This was first assessed in isolated groups of murine acinar cells (acini) that were exposed to supraphysiologic concentrations of cerulein and carbachol (which induces early acinar cell pancreatitis responses) in isolated WT mouse acini and acini isolated from renalase deficient mice in vitro (FIG. 9). The recombinant renalase reduced trypsinogen activation induced by either cerulein (FIG. 9A) or carbachol (FIG. 9B). […] Renalase had no effect on untreated acini or acini treated with physiologic stimulation.

renalase KO mice = conditions: Wang et al., 2014; cited from earlier work
HK-2 cells = experiment: In vitro model of cisplatin toxicity: HK-2 cell survival by the WST-1 method; assay type: cell-based, human; conditions: 20 μM cisplatin, 24 hrs; test substance 80 μg/ml
Experimental: FIG. 1B is a graph depicting the effect of renalase peptides on survival of HK-2 cells exposed to 20 μM cisplatin for 24 hrs; cell survival is depicted as % change in survival compared to that in cisplatin-treated HK-2 cells without renalase peptides; cell survival was measured by the WST-1 method; RP-A220: mutated RP-220, and RP-19 and RP-128: control peptides; peptide concentration (μg/ml) indicated in top line; n=4, *=p<0.05. […]
HK-2 cells (human proximal tubular line) obtained from ATTC (Manassas, Va., USA) were cultured in DMEM/F12 supplemented with glutamine, 10% FBS and antibiotics, and were maintained at 37° C. in 5% CO2. Cells were exposed to cisplatin (20 μM) in the presence or absence of recombinant renalase or renalase peptides for 24 hrs, and cell viability was assessed by the WST1 method (Roche Applied Science, Germany).

[5] = cited from earlier work

Sequence of PMCA (Homo sapiens, UniProt P23634) (P23634 1-1205 isoform P23634-6): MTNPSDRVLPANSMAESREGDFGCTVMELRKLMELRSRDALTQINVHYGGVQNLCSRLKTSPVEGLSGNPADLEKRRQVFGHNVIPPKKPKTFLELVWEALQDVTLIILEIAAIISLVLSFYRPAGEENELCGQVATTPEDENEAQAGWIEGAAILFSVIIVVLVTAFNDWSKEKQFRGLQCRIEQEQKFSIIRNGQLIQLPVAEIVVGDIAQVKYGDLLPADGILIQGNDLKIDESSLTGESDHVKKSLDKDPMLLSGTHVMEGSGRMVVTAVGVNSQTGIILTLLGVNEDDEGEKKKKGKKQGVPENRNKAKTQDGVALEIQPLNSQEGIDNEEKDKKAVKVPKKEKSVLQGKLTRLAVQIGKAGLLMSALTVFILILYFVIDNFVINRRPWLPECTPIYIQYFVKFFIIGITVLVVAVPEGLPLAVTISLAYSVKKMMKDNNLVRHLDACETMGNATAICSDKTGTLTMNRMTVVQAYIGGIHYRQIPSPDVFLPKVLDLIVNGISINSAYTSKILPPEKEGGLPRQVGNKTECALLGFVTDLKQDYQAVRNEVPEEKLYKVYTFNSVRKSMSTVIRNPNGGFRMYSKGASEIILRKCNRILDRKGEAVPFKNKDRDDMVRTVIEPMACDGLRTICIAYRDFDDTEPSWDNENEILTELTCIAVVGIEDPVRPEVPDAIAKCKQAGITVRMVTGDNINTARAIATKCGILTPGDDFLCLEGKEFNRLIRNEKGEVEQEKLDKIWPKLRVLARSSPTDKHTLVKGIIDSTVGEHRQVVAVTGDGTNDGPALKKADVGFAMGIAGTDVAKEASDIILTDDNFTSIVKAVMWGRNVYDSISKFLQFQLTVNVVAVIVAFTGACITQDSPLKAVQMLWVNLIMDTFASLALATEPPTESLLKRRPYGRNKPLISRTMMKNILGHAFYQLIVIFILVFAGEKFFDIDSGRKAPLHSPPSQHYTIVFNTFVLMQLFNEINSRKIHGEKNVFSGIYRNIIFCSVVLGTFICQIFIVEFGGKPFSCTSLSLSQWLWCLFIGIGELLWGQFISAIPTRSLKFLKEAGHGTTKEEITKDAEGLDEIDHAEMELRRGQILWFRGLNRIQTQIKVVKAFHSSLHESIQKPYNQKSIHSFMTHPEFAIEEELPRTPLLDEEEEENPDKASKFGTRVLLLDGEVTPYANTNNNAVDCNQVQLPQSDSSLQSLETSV

baseline Ca2+ levels (PMCA [1]): did not change | rate of Ca2+ efflux (PMCA [1]; 100 nM cerulein, Ca2+-free medium, cyclopiazonic acid): increased | baseline Ca2+ levels (PMCA [3]): did not change | rate of Ca2+ efflux (PMCA [3]; 10 nM angiotensin IV, Ca2+-free and Na+-free medium, cyclopiazonic acid): increased | trypsinogen activation in acini from renalase knockout (KO) mice (isolated mouse acini [4]; renalase 25 μg/mL, cerulein 0.1 nM or 100 nM, 30 minutes): reduced
B1: recombinant renalase: recombinant full-length human renalase, secretory flavoprotein oxidase; synthesized as in Desir et al., 2012; SEQ ID NO: 8 or 9 (protein)
chain: ALLRRQTSGPLYLAVWDKAEDSGGRMTTACSPHNPQCTADLGAQYITCTPHYAKKHQRFYDELLAYGVLRPLSSPIEGMVMKEGDCNFVAPQGISSIIKHYLKESGAEVYFRHRVTQINLRDDKWEVSKQTGSPEQFDLIVLTMPVPEILQLQGDITTLISECQRQQLEAVSYSSRYALGLFYEAGTKIDVPWAGQYITSNPCIRFVSIDNKKRNIESSEIGPSLVIHTTVPFGVTYLEHSIEDVQELVFQQLENILPGLPQPIATKCQKWRHSQVTNAAANCPGQMTLHHKPFLACGGDGFTQSNFDGCITSALCVLEALKNYI
ERK phosphorylation (ERK): rapidly increased | individual and aggregate histologic scores of pancreatitis (WT mice): significantly decreased injury; also recorded: significantly less | p38 phosphorylation (p38 MAPK): rapidly increased | ischemic acute kidney injury (AKI) (mice): significantly attenuates; also recorded: protects mice against ischemic AKI | injury of acini in vitro (MTT accumulation, LDH release) (isolated mouse acini [2]): reduce | trypsinogen activation induced by cerulein (isolated mouse acini [4]; WT mouse acini, renalase 25 μg/mL 30 minutes pretreatment, supraphysiologic (100 nM) cerulein): reduced | trypsinogen activation induced by carbachol (isolated mouse acini [4]; WT mouse acini, renalase 25 μg/mL 30 minutes pretreatment, supraphysiologic (1000 μM) carbachol): reduced | effect on untreated acini (isolated mouse acini [4]; no stimulation): no effect | effect on acini treated with physiologic stimulation (isolated mouse acini [4]; physiologic cerulein (0.1 nM) or carbachol (1 μM)): no effect | activating MAPK signaling in renalase KO mice (renalase KO mice): neither renalase nor RP-220 is effective | protecting renalase KO mice against mild or severe ischemic AKI (renalase KO mice): neither renalase nor RP-220 is effective | survival of HK-2 cells exposed to cisplatin (protective effect) (HK-2 cells): protected HK-2 cells to a similar degree | blood pressure ([5]; rodents, Xu et al., 2005, Milani et al., 2011): decreases blood pressure | plasma catecholamines ([5]; wild type (WT) mice): lowers | systemic blood pressure ([5]; wild type (WT) mice): lowers
